In patent publication US20140120555A1 (PIERRE FABRE MEDICAMENT, published 2014):
Positions count from the first letter of the chain named. In names and notes the source's numbering stands.

Columns and labels:
[1] = molecular target: T1, Recombinant human FcγRIIIA variant V [CD16a], Gln17-Gln208 with C-terminal 6-His tag (human, UniProt P08637 17-208); experiment: SPR (Biacore X): h-FcγRIIIA injected over c515H7 Mab immobilized on a CM4 sensorchip; heterogeneous ligand model, major component (81%)
T1 construct: range 17-208; 'variant V' is given without a position, so no substitution is written; also called h-FcγRIIIA
T1 sequence (P08637 other isoform, or with tags, fused parts or gaps mutant limits assumed, form in doubt): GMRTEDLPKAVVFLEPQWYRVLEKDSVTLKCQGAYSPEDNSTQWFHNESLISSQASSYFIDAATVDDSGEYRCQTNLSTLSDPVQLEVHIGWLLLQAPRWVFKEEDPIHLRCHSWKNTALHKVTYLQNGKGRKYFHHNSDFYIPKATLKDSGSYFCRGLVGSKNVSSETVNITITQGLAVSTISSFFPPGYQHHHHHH
Experimental: (§1) 2017 RU of c515H7 Mab were immobilized using the amine coupling kit chemistry on the second flowcell (FC2) of a CM4 sensorchip. The first flowcell (FC1) activated by NHS and EDC mixture and des-activated by ethanolamine served as the reference surface to check and subtract the non specific interaction between the analyte (Fc gamma receptors) and the sensorchip matrix.
(§2) The kinetic experiments were carried out at 25° Celsius at a flow rate of 30 μl/min. The HBS-EP buffer was used either as the running buffer or for the preparation of analyte solutions. The analyte solutions were injected during 90 seconds (association phase) with a 90 seconds delay (dissociation phase). An injection of running buffer as analyte was used as a double reference. All the sensorgrams were corrected by this double reference sensorgram.
(§3) After each injection of the analyte, the sensorchip was regenerated by injection of 20 mM NaOH, 75 mM NaCl solution.

[2] = molecular target: T2, Recombinant mouse FcγRI [CD64], Gln25-Pro297 with C-terminal 6-His tag (mouse, UniProt P26151 25-297); experiment: SPR (Biacore X), Mab on CM4 chip, m-FcγRI as analyte, heterogeneous ligand model, major component; major component (81%), lower value
T2 construct: range 25-297; Soluble form bought from R&D Systems; also called m-FcγRI
T2 sequence: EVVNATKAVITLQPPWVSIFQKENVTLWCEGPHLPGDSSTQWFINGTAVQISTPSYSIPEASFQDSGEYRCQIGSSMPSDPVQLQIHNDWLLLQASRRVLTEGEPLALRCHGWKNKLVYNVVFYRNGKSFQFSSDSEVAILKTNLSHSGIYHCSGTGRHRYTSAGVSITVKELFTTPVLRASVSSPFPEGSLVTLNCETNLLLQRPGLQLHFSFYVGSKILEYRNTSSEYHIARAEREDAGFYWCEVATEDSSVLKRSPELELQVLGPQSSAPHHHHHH
Experimental: as §1, §2
According to this model, the c515H7 Mab Fc domain may be regarded as a mixture of two components.

[3] = molecular target: T2, Recombinant mouse FcγRI [CD64], …; experiment: SPR (Biacore X): m-FcγRI injected over c515H7 Mab immobilized on a CM4 sensorchip; heterogeneous ligand model, minor component (19%)
Experimental: as §1, §2, §3

[4] = molecular target: T3, Recombinant mouse FcγRIII [CD16], Ala31-Thr215 with C-terminal 10-His tag (mouse, UniProt P08508 31-215); experiment: SPR (Biacore X), Mab on CM4 chip, m-FcγRIII as analyte, Langmuïr model
T3 construct: Soluble form bought from R&D Systems; also called m-FcγRIII
T3 sequence: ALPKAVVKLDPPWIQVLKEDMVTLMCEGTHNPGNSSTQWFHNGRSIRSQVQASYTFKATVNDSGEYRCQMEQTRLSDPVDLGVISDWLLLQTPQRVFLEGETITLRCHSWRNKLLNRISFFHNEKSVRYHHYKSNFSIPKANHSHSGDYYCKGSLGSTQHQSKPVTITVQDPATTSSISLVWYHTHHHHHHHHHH
Experimental: as §1, §2, §3

[5] = molecular target: T2, Recombinant mouse FcγRI [CD64], …; experiment: SPR (Biacore X): m-FcγRI injected over c515H7 Mab immobilized on a CM4 sensorchip; heterogeneous ligand model, major component (81%)
Experimental: as §1, §2, §3

[6] = molecular target: T4, Recombinant human FcγRI [CD64], Gln16-Pro288 with C-terminal 6-His tag (human, UniProt P12314 16-288); experiment: SPR (Biacore X): h-FcγRI injected over c515H7 Mab immobilized on a CM4 sensorchip; Langmuir model
T4 construct: range 16-288; Soluble form bought from R&D Systems; also called h-FcγRI
T4 sequence (P12314 other isoform, or with tags, fused parts or gaps limits assumed): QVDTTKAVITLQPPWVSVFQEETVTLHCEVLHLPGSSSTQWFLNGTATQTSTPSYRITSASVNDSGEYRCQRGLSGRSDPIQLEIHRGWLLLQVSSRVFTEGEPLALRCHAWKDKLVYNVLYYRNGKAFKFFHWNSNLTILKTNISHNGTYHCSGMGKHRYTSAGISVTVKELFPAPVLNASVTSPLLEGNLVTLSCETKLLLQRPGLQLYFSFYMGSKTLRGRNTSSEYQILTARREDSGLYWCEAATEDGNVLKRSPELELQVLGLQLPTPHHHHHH
Experimental: as §1, §2, §3

[7] = molecular target: T4, Recombinant human FcγRI [CD64], …; experiment: SPR (Biacore X): h-FcγRI injected over c515H7 Mab immobilized on a CM4 sensorchip; heterogeneous ligand model, minor component (0%)
Experimental: as §1, §2, §3

[8] = molecular target: T2, Recombinant mouse FcγRI [CD64], …; experiment: SPR (Biacore X), Mab on CM4 chip, m-FcγRI as analyte, heterogeneous ligand model, major component
Experimental: as §1, with “1964” for “2017”, “hz515H7VH1D76NVL2” for “c515H7”
as §2
According to this model, the hz515H7VH1D76NVL2 Mab Fc domain may be regarded as a mixture of two components.

[9] = molecular target: T2, Recombinant mouse FcγRI [CD64], …; experiment: SPR (Biacore X): m-FcγRI injected over hz515H7VH1D76NVL2 Mab immobilized on a CM4 sensorchip; Langmuir model
Experimental: as §1, with “1964” for “2017”, “hz515H7VH1D76NVL2” for “c515H7”
as §2
After each injection of the analyte, the sensorchip was regenerated by injection of either 20 mM NaOH solution after h-FcγRI and m-FcγRIII or 10 mM NaOH after h-FcγRIIIA and m-FcγRI.

[10] = molecular target: T3, Recombinant mouse FcγRIII [CD16], …; experiment: SPR (Biacore X), Mab on CM4 chip, m-FcγRIII as analyte, Langmuïr model; higher of the two Langmuïr-fit values
Experimental: as §1, with “1964” for “2017”, “hz515H7VH1D76NVL2” for “c515H7”
as §2
Using the Langmuïr model the constant of dissociation was around 17 and 18 nM.

B1: chimeric antibody c515H7 (antibody, human IgG1, kappa)
heavy: not shown
light: DIVMSQSPSSLAVSAGEKVTMSCKSSQSLFNSRTRKNYLAWYQQKPGQSPKLLIYWASARDSGVPARFTGSGSETYFTLTISRVQAEDLAVYYCMQSFNLRTFGGGTKLEIKRTVAAPSVFIFPPSDEQLKSGTASVVCLLNNFYPREAKVQWKVDNALQSGNSQESVTEQDSKDSTYSLSSTLTLSKADYEKHKVYACEVTHQGLSSPVTKSFNRGEC
notes: Human IgG1/kappa constant domains; also called c515H7 Mab; chimeric 515H7
For B1, the Kd [1] was 395 nM, the koff [1] was 0.185 s⁻¹ and the kon [1] was 468000 M⁻¹ s⁻¹. The Kd [2] was roughly 380 nM, the Kd [3] was 34.6 nM and the koff [3] was 0.0387 s⁻¹. It also gave a kon [3] of 1.12e+06 M⁻¹ s⁻¹, a Kd [4] of roughly 20 nM and a Kd [5] of 416 nM. The koff [5] was 0.138 s⁻¹, the kon [5] was 332000 M⁻¹ s⁻¹ and the Kd [6] was 1.22 nM. It also gave a koff [6] of 0.000599 s⁻¹, a kon [6] of 493000 M⁻¹ s⁻¹ and a Kd [7] of 0.06 nM. It also gave a koff [7] of 7.3e-05 s⁻¹ and a kon [7] of 1.14e+06 M⁻¹ s⁻¹.

B2: humanized antibody Hz515H7 VH1 D76N VL2 (antibody, human IgG1, kappa)
heavy: not shown
light: B1 light with S5T, A15L, K18R, V19A, G105Q, L109V
notes: IgG1/kappa; also called hz515H7VL2; hz515H7-1
In the case of B2, the Kd [8] is reported as 75 to 80 nM, the Kd [9] is reported as 77 nM and the koff [9] is reported as 0.0648 s⁻¹. The kon [9] was 842000 M⁻¹ s⁻¹ and the Kd [10] was roughly 18 nM.
